Targets include SmU2AF65 (Schistosoma mansoni, UniProt C4Q2F6 1-521); SmU2AF65 Mutant 2 (Schistosoma mansoni, UniProt C4Q2F6 1-521, L255A;R270E;Q284R;V289A); SmU2AF65 Mutant 1 (Schistosoma mansoni, UniProt C4Q2F6 1-521, L255A;R270A;Q284A;V289A).
Assay in all cases: EMSA; EMSA: 0.5 pmol FAM-RNA (heated 70 C 5 min, cooled on ice) with 1 ug WT or 2 ug mutant protein in 10 uL Beyotime reaction buffer (composition, salt and pH not stated), 20 min at room temperature; competitor 200 pmol unlabeled RNA; 6% native PAGE in 1x TBE pH 8.3
What all share (conditions): protein: recombinant; tags: His+SUMO, cleaved with ULP1; single strand

In the case of UACAUAAAUUAAUAAGUAUUUUUACUUUUUUUUAUUUUCAAUUUCAACAG (ssRNA) [50-nt intron 3' region consensus RNA], the binding result is given as “binds” with SmU2AF65, “no binding” with SmU2AF65 Mutant 2 and “binds” with SmU2AF65 Mutant 1.
